For two substances, MFI and Reduction in 3C12 MFI (%) results are on record in patent US20180201681A1.

Assay [1] concerns the target human CD83 on the cell surface (KM-H2, L428, FDCP1 and BB88 cells transfected with full length human CD83) (human) (UniProt Q01151). Description: flow cytometry on the CD83+ cell line KM-H2, background control.
Assay [2] has the same target. Description: competition by flow cytometry on KM-H2 cells, antibodies added at the same time; reduction of the 3C12-RPE signal in the presence of HB15a-FITC. (Flow cytometry measures light scatter and fluorescence of single cells or particles in a stream.)

Chain of human CD83 on the cell surface (KM-H2, L428, FDCP1 and BB88 cells transfected with full length human CD83) (human) (Q01151 20-205): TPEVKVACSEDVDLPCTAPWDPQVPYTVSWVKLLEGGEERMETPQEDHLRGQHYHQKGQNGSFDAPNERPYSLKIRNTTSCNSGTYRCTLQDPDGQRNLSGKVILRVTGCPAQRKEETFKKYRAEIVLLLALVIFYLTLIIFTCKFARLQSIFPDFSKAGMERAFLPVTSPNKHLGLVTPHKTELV

In the case of isotype control (human IgG1) (antibody), the MFI in assay [1] turned out to be 335 MFI.
“HB15a (commercial anti-human CD83 mAb, Immunotech) (antibody)”: in assay [2], the Reduction in 3C12 MFI (%) came to 24.7%.
